From patent publication US20160304625A1 (WELT BIO MOLECULAR PHARMACEUTICAL, published 2016)

Tests used:
[1] = molecular target: T1, mIgG proximal domain peptide ELQLEESCAEAQDGELDG (human); experiment: competition ELISA, block 'Blocked by mAb 1', mIgG-PD
T1 construct: also called mIgG-PD; 18-mer mIgG
T1 peptide: ELQLEESCAEAQDGELDG

[2] = molecular target: human membrane bound IgM with kappa light chain (mIgM-kappa) (human, UniProt P01871 1-474); experiment: cell-based or functional assay
Chain of human membrane bound IgM with kappa light chain (mIgM-kappa) (P01871 whole entry): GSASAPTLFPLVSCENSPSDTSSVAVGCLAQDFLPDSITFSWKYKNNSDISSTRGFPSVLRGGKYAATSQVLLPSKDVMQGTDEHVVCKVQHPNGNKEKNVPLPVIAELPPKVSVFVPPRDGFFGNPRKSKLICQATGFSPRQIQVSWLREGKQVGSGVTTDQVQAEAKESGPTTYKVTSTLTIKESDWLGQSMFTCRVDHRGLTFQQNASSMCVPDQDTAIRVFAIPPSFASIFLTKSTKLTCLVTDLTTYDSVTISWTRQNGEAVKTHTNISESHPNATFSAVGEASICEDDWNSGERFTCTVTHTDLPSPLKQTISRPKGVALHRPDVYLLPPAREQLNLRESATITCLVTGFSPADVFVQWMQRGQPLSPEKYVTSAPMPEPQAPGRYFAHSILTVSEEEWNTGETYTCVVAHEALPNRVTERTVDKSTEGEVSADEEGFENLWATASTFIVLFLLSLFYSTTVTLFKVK

B1: monoclonal antibody mAb4-2b (antibody, mouse IgG1, V domains shown)
VH: EVQLEESGAELVKPGASLKLSCKASGYTFTSYWMNWVKQRPGQGLEWIGIIHPNSGSTNYNEKFKTKATLTVDKSSSTAYMQLSSLTSEDSAVYYCARTRGNYGMDYWGQGTSVTVSS
VL: DIVMTQSHKFMSTSVGDRVSITCKASQDVSTAVAWYQQKPGQSPTLLIYSASYRNTGVPDRFTGSGSGTDFTFTISSVQAEDLAVYYCQQHFSIPPLTFGAGTKLELKR
[1]
  binding result: no binding
[2]
  clonogenic capacity of CA 46: 100 fold
